Target: Streptococcus pyogenes (Spy) dCas9 (Streptococcus pyogenes) (UniProt Q99ZW2)
Assay: cell-based or functional assay

Substance	RFP fluorescence relative to a strain with no guide RNA (dCas9-based repression of a chromosomal RFP reporter in E. coli) [%]
AcrIIA2 (LMOG_03147)	25
AcrIIA4	85

Reference: patent publication US20200087354A1
